According to patent US20130089544A1 (AstraZeneca / MedImmune, published 2013):
Residue numbers refer to the chain shown, from its start. Blank lines part the entries; values can stand above or below the binder they belong to.

Assays:
[1] = target: T1, human ErbB2, full length, on cells (human, UniProt P04626 23-1255); assay: cell-based or functional assay
[2] = target: T2, human ErbB2 ECD-myc/His fusion protein (human, UniProt P04626 23-652); assay: SPR, Biacore 2000 medium resolution; mAb captured on goat anti-human IgG, ErbB2(ECD)-cMyc/His injected; 1:1 fit
T2 construct: Made in-house in 293T cells; also called hErbB2(ECD)/cMyc-His; huErbB2 (ECD)/c-myc-His; not shown: c-myc/His tag of the pSecTag2Hygro vector
Protocol: The binding affinity of eight of the anti-ErbB2 antibodies was measured by medium resolution Biacore. All experiments were performed using a Biacore 2000 instrument.
First, 12 high-density goat α-human IgG antibody surfaces over three CM5 Biacore chips were prepared using routine amine coupling. […] Before each antigen injection cycle, each mAb was captured for six to nine seconds at a 100 μL/min flow rate. A 2-minute wash step followed each capture injection to stabilize each mAb baseline. […] All samples were randomly injected with several mAb capture/buffer inject cycles interspersed for double referencing. […] A flow rate of 100 μL/min. was used for all injection cycles. The data was fit to a 1:1 interaction model using CLAMP.

[3] = target: T1, human ErbB2, full length, on cells; assay: cell-based or functional assay; remark: listed apart in the source
[4] = target: T1, human ErbB2, full length, on cells; assay: cell-based or functional assay; remark: listed apart in the source
[5] = target: T1, human ErbB2, full length, on cells; assay: cell-based or functional assay; remark: listed apart in the source
[6] = target: T1, human ErbB2, full length, on cells; assay: cell-based or functional assay; remark: listed apart in the source
[7] = target: T1, human ErbB2, full length, on cells; assay: cell-based or functional assay; remark: listed apart in the source
[8] = target: T2, human ErbB2 ECD-myc/His fusion protein; assay: limited antigen ELISA, 31 ng/ml ErbB2 ECD-myc/His coated, supernatant 1:25
Protocol: […] […] Antigen-coated plates were washed three times, blocked with 1% non-fat skim milk/PBS for at least 30 minutes at room temperature, and then washed again three times. Each hybridoma line sample was titrated in 1% non-fat skim-milk/PBS 1:3 for 7 points starting from a 1:25 dilution. […] The next day, plates were washed three times and incubated with 50 μl of 400 ng/ml immunopure Goat anti-human IgG (Fc)-HRP (Pierce catalog #31416) for 1 hour at room temperature. Then, the plates were extensively washed and pat dried on paper towel to remove residual HRP in wells. HRP substrate TMB (enhanced K-blue TMB, Neogen catalog #308177) was added to each well and incubated for 30 min. The reaction was stopped by addition of 1N HCl. Optical density at 450 nm was read on a microplate reader (Titerteck Multiskan Ascent).

[9] = target: T2, human ErbB2 ECD-myc/His fusion protein; assay: SPR, Biacore T100 high resolution; mAb captured on goat anti-human IgG, hHer-2(ECD)cMyc injected; 1:1 fit
Protocol: All experiments were performed using a Biacore T100 instrument. First, a high-density goat α human IgG antibody (Caltag H10500) surface was prepared over two CM5 Biacore chips using routine amine coupling. Each mAb was diluted in HBS-P running buffer containing 100 μg/ml Bovine serum albumin (BSA).
A capture level protocol was developed for all five mAbs. Before each antigen injection cycle, each mAb was captured for 15 to 30 seconds at a 20 μL/min flow rate. A 5-minute wash step followed each capture injection to stabilize each mAb baseline. […] The samples were prepared in the running buffer described above. All samples were randomly injected with several mAb capture/buffer inject cycles interspersed for double referencing. […] A flow rate of 50 μL/min. was used for all injection cycles.
All sensorgram data were fit to a 1:1 interaction model using CLAMP.

1 hr pTyr inhibition % (Heregulin-induced ErbB2 phosphorylation in MCF7 cells, hybridoma supernatant) [1]: 91%
24 hr pTyr inhibition % (Heregulin-induced ErbB2 phosphorylation in MCF7 cells, hybridoma supernatant) [1]: 96%
Kd [2]: 3.6 nM
koff [2]: 0.000344 s⁻¹
kon [2]: 95000 M⁻¹ s⁻¹
N1 % Inhibition @40 µg/ml, BT474 cell proliferation [3]: 40%
N1 EC50 (ng/ml), inhibition of BT474 cell proliferation [3]: 85.3 ng/mL
N2 % Inhibition @40 µg/ml, BT474 cell proliferation [3]: 37%
N2 EC50 (ng/ml), inhibition of BT474 cell proliferation [3]: 12.8 ng/mL
% inhibition @36 µg/ml, SKBR3 cell proliferation [4]: 49%
EC50 (ng/ml), inhibition of SKBR3 cell proliferation [4]: 25.2 ng/mL
% Inhibition @10 µg/ml (n1), ErbB2 phosphorylation in BT474 cells at 48 hours [5]: 21%
% Inhibition @10 µg/ml (n2), ErbB2 phosphorylation in BT474 cells at 48 hours [5]: 28%
EC50 (ng/ml) n1, inhibition of Heregulin-induced ErbB2 phosphorylation in MCF7 cells [6]: 15.5 ng/mL
EC50 (ng/ml) n2, inhibition of Heregulin-induced ErbB2 phosphorylation in MCF7 cells [6]: 17.4 ng/mL
% Inhibition @10 µg/ml, Heregulin-induced MCF7 cell proliferation [7]: 100%
EC50 (ng/ml), inhibition of Heregulin-induced MCF7 cell proliferation [7]: 770 ng/mL
B1: monoclonal antibody 1.20 (antibody, V domains shown)
VH: EVQLVESGGGLVKPGGSLRLSCAASGFTFSSYTMNWVRQAPGKGLEWVSSISSSSSYIYYADSVKGRFTISRDNAKNSLYLQMNSLSAEDTAVYSCARGGDGYNYYYFDYWGQGTLVTVSS
VL: DIVMTQSPGSLVVSLGERATITCKSSQSVFFRSNNKNCLAWYQQRPGQSPNLLIYWASTRESGVPDRFSGSGSGTDFTLTISSLQAEDVAVYYCQQYFGSPFTFGPGTKVDIK
notes: Fully human IgG (gamma/kappa) from a XenoMouse XM3B-3 hybridoma; constant regions not tied to it; also called 1.20.1; 1.19

1 hr pTyr inhibition % (Heregulin-induced ErbB2 phosphorylation in MCF7 cells, hybridoma supernatant) [1]: 103%
24 hr pTyr inhibition % (Heregulin-induced ErbB2 phosphorylation in MCF7 cells, hybridoma supernatant) [1]: 100%
Kd [2]: 2.5 nM
koff [2]: 0.000256 s⁻¹
kon [2]: 102000 M⁻¹ s⁻¹
N1 % Inhibition @40 µg/ml, BT474 cell proliferation [3]: 38%
N1 EC50 (ng/ml), inhibition of BT474 cell proliferation [3]: 136 ng/mL
N2 % Inhibition @40 µg/ml, BT474 cell proliferation [3]: 39%
N2 EC50 (ng/ml), inhibition of BT474 cell proliferation [3]: 63 ng/mL
% inhibition @36 µg/ml, SKBR3 cell proliferation [4]: 52%
EC50 (ng/ml), inhibition of SKBR3 cell proliferation [4]: 35.7 ng/mL
% Inhibition @10 µg/ml (n1), ErbB2 phosphorylation in BT474 cells at 48 hours [5]: 37%
% Inhibition @10 µg/ml (n2), ErbB2 phosphorylation in BT474 cells at 48 hours [5]: 45%
EC50 (ng/ml) n1, inhibition of Heregulin-induced ErbB2 phosphorylation in MCF7 cells [6]: 33.7 ng/mL
EC50 (ng/ml) n2, inhibition of Heregulin-induced ErbB2 phosphorylation in MCF7 cells [6]: 22.9 ng/mL
% Inhibition @10 µg/ml, Heregulin-induced MCF7 cell proliferation [7]: 96%
EC50 (ng/ml), inhibition of Heregulin-induced MCF7 cell proliferation [7]: 640 ng/mL
LA at 31 ng/ml (OD) [8]: 3.99 OD 450 nm
B2: monoclonal antibody 1.14.1 (antibody, V domains shown)
VH: B1 VH with T33S, S87R, S95Y
VL: B1 VL with G9D, V12A, A40T, S49P, S82N, S83N
notes: Fully human IgG (gamma/kappa) from a XenoMouse XM3B-3 hybridoma; constant regions not tied to it

1 hr pTyr inhibition % (Heregulin-induced ErbB2 phosphorylation in MCF7 cells, hybridoma supernatant) [1]: 77%
24 hr pTyr inhibition % (Heregulin-induced ErbB2 phosphorylation in MCF7 cells, hybridoma supernatant) [1]: 99%
Kd [2]: 5.1 nM
koff [2]: 0.000655 s⁻¹
kon [2]: 128000 M⁻¹ s⁻¹
N1 % Inhibition @40 µg/ml, BT474 cell proliferation [3]: 24%
N1 EC50 (ng/ml), inhibition of BT474 cell proliferation [3]: 198 ng/mL
N2 % Inhibition @40 µg/ml, BT474 cell proliferation [3]: 29%
N2 EC50 (ng/ml), inhibition of BT474 cell proliferation [3]: 74.4 ng/mL
% inhibition @36 µg/ml, SKBR3 cell proliferation [4]: 37%
EC50 (ng/ml), inhibition of SKBR3 cell proliferation [4]: 48.5 ng/mL
EC50 (ng/ml) n1, inhibition of Heregulin-induced ErbB2 phosphorylation in MCF7 cells [6]: 42.9 ng/mL
EC50 (ng/ml) n2, inhibition of Heregulin-induced ErbB2 phosphorylation in MCF7 cells [6]: 20.4 ng/mL
% Inhibition @10 µg/ml, Heregulin-induced MCF7 cell proliferation [7]: 81%
EC50 (ng/ml), inhibition of Heregulin-induced MCF7 cell proliferation [7]: 3020 ng/mL
LA at 31 ng/ml (OD) [8]: 2.35 OD 450 nm
B3: monoclonal antibody 1.24 (antibody, V domains shown)
VH: B1 VH with T33S, S87R, S95Y
VL: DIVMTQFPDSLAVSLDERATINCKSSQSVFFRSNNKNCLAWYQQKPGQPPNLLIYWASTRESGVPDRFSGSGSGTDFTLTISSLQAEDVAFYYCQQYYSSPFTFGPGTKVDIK
notes: Fully human IgG (gamma/kappa) from a XenoMouse XM3B-3 hybridoma; constant regions not tied to it; also called 1.24.3

Kd [2]: 2.6 nM
koff [2]: 0.000273 s⁻¹
kon [2]: 103000 M⁻¹ s⁻¹
N1 % Inhibition @40 µg/ml, BT474 cell proliferation [3]: 35%
N1 EC50 (ng/ml), inhibition of BT474 cell proliferation [3]: 131 ng/mL
N2 % Inhibition @40 µg/ml, BT474 cell proliferation [3]: 29%
N2 EC50 (ng/ml), inhibition of BT474 cell proliferation [3]: 66.3 ng/mL
Kd [9]: 11.6 nM
koff [9]: 0.000194 s⁻¹
kon [9]: 16800 M⁻¹ s⁻¹
% inhibition @36 µg/ml, SKBR3 cell proliferation [4]: 43%
EC50 (ng/ml), inhibition of SKBR3 cell proliferation [4]: 41.7 ng/mL
% Inhibition @10 µg/ml (n1), ErbB2 phosphorylation in BT474 cells at 48 hours [5]: 37%
% Inhibition @10 µg/ml (n2), ErbB2 phosphorylation in BT474 cells at 48 hours [5]: 30%
EC50 (ng/ml) n1, inhibition of Heregulin-induced ErbB2 phosphorylation in MCF7 cells [6]: 28.8 ng/mL
EC50 (ng/ml) n2, inhibition of Heregulin-induced ErbB2 phosphorylation in MCF7 cells [6]: 34 ng/mL
% Inhibition @10 µg/ml, Heregulin-induced MCF7 cell proliferation [7]: 98%
EC50 (ng/ml), inhibition of Heregulin-induced MCF7 cell proliferation [7]: 2830 ng/mL
B4: monoclonal antibody 1.96 (antibody, V domains shown)
VH: B1 VH with T33S, S87R, S95Y
VL: B1 VL with G9D, V12A, S49P, I54F, F104L
notes: as for B2
